From PMC9688318, “Construction of a Versatile, Programmable RNA-Binding Protein Using Designer PPR Proteins and Its Application for Splicing Control in Mammalian Cells”

Tests used:
[1] = biological target: MS2 protein (UniProt P03612 2-130); assay: RBP-ELISA; purified and lysate, dose-dependent; EMSA: 20 mM Tris-HCl pH 8.0, 150 mM NaCl, 0.5% NP-40, 1 mM DTT, 1 mM EDTA, 0.2 pmol biotin-RNA in 10 uL, 6% PAGE in 0.5x TBE; temperature not stated; RBP-ELISA; settings: protein: recombinant; tags: 6xHis; Nano-luc; chain copies: 2; label: 5'-biotin; hairpin
[2] = biological target: T1, PPR2.0 t1 (synthetic); assay: EMSA; 20 mM Tris-HCl pH 8.0, 150 mM NaCl, 0.5% NP-40, 1 mM DTT, 1 mM EDTA; 20 nM RNA; settings: tags: N-terminal SBP, C-terminal His6, kept; label: biotin
T1 chain: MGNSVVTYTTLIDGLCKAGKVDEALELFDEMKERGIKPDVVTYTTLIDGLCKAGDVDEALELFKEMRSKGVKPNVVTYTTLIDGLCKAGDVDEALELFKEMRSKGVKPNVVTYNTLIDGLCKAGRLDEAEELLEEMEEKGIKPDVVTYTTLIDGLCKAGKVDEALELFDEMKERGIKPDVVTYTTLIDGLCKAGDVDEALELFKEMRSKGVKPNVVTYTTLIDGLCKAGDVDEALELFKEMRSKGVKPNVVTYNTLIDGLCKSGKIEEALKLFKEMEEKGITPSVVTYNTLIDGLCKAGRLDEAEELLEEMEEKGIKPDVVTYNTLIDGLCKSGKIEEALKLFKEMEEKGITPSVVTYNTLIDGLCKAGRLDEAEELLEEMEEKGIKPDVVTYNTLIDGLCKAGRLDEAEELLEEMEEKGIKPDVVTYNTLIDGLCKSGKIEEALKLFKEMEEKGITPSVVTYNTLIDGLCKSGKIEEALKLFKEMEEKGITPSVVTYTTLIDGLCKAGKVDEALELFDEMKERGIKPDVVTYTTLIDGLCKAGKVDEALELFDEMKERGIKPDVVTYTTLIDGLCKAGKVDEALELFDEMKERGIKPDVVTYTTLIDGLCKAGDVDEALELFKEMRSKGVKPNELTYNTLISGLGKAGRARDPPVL

[3] = biological target: T1, PPR2.0 t1; assay: 20 mM Tris-HCl pH 8.0, 150 mM NaCl, 0.5% NP-40, 1 mM DTT; settings: tags: N-terminal NanoLuc, C-terminal His6, kept; label: biotin
[4] = biological target: T2, PPR2.0 t19 (synthetic); assay: EMSA; 20 mM Tris-HCl pH 8.0, 150 mM NaCl, 0.5% NP-40, 1 mM DTT, 1 mM EDTA; 20 nM RNA; settings: tags: N-terminal SBP, C-terminal His6, kept; label: biotin
T2 chain: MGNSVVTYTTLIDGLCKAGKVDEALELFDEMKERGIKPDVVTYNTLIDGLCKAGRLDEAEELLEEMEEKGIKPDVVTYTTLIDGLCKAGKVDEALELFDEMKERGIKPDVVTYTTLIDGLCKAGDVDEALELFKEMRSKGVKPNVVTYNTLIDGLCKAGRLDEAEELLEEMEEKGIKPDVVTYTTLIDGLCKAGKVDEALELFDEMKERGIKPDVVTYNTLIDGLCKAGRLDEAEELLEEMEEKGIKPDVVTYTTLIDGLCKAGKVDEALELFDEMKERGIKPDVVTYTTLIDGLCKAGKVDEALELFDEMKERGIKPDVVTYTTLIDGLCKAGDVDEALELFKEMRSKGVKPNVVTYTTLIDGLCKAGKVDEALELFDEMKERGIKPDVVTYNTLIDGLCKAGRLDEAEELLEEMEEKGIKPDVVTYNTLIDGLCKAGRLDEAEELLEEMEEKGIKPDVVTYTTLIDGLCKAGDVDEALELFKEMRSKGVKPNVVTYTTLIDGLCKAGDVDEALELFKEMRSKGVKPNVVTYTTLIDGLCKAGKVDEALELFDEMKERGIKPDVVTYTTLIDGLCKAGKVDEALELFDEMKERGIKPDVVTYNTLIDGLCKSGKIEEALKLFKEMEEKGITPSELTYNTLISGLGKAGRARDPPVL

[5] = biological target: T2, PPR2.0 t19; assay: 20 mM Tris-HCl pH 8.0, 150 mM NaCl, 0.5% NP-40, 1 mM DTT; settings: tags: N-terminal NanoLuc, C-terminal His6, kept; label: biotin
[6] = biological target: T3, PPR2.0 t23 (synthetic); assay: EMSA; 20 mM Tris-HCl pH 8.0, 150 mM NaCl, 0.5% NP-40, 1 mM DTT, 1 mM EDTA; 20 nM RNA; settings: tags: N-terminal SBP, C-terminal His6, kept; label: biotin
T3 chain: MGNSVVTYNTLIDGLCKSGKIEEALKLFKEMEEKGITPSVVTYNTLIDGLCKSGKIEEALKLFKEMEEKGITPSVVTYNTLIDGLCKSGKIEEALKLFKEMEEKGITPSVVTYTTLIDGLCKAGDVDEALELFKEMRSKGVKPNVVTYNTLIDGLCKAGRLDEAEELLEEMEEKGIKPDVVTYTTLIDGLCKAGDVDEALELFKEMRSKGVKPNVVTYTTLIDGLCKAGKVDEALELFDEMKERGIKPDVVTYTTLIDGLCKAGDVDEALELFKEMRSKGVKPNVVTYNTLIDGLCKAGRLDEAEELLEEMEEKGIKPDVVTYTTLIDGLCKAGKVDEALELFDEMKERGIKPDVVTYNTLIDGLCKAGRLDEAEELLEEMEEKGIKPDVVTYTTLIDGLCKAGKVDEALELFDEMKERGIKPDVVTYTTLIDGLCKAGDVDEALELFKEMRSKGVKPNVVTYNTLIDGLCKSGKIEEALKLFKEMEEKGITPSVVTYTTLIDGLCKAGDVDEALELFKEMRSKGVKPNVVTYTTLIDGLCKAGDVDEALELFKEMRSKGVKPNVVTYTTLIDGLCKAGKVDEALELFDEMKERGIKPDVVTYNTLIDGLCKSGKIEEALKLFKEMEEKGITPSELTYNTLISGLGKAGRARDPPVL

[7] = biological target: T3, PPR2.0 t23; assay: 20 mM Tris-HCl pH 8.0, 150 mM NaCl, 0.5% NP-40, 1 mM DTT; settings: tags: N-terminal NanoLuc, C-terminal His6, kept; label: biotin
[8] = biological target: T4, PPR2.0 t24 (synthetic); assay: EMSA; 20 mM Tris-HCl pH 8.0, 150 mM NaCl, 0.5% NP-40, 1 mM DTT, 1 mM EDTA; 20 nM RNA; settings: tags: N-terminal SBP, C-terminal His6, kept; label: biotin
T4 chain: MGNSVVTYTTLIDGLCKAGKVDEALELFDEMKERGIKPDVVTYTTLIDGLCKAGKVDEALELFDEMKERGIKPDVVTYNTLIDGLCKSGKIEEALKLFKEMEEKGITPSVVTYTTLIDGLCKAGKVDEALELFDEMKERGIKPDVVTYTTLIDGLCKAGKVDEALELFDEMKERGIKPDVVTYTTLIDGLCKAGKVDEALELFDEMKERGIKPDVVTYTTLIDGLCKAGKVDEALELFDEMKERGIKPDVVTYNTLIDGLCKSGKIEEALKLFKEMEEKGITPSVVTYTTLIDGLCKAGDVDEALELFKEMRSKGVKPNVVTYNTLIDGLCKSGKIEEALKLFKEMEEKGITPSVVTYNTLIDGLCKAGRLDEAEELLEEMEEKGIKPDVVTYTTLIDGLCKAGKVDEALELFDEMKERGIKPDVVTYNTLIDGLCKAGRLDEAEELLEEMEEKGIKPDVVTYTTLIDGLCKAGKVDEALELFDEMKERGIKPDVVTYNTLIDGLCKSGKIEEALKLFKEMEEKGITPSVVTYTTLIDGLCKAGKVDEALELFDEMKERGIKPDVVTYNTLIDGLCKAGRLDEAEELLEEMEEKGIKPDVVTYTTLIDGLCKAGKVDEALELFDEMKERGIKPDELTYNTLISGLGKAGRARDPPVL

[9] = biological target: T5, PPR2.0 t2 (synthetic); assay: as above; settings: tags: N-terminal SBP, C-terminal His6, kept; label: biotin
T5 chain: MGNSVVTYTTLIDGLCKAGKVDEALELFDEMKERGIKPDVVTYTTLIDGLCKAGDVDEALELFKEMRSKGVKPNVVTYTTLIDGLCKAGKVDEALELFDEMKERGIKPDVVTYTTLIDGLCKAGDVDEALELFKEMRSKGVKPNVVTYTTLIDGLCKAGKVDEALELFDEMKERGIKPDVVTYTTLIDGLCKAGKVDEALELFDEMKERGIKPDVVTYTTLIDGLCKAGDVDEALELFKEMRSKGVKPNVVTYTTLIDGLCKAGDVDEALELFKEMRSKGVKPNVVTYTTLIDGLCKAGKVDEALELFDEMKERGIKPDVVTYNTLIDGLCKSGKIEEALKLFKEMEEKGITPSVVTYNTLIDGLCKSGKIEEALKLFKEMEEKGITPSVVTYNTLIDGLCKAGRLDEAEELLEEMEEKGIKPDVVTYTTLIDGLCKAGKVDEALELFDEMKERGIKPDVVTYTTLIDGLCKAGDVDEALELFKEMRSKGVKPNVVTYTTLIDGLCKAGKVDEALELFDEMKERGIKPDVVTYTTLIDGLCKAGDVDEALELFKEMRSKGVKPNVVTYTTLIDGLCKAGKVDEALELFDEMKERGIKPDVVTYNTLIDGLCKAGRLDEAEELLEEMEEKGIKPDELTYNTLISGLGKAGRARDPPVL

[10] = biological target: T5, PPR2.0 t2; assay: 20 mM Tris-HCl pH 8.0, 150 mM NaCl, 0.5% NP-40, 1 mM DTT; settings: tags: N-terminal NanoLuc, C-terminal His6, kept; label: biotin
[11] = biological target: T6, PPR2.0 t3 (synthetic); assay: EMSA; 20 mM Tris-HCl pH 8.0, 150 mM NaCl, 0.5% NP-40, 1 mM DTT, 1 mM EDTA; 20 nM RNA; settings: tags: N-terminal SBP, C-terminal His6, kept; label: biotin
T6 chain: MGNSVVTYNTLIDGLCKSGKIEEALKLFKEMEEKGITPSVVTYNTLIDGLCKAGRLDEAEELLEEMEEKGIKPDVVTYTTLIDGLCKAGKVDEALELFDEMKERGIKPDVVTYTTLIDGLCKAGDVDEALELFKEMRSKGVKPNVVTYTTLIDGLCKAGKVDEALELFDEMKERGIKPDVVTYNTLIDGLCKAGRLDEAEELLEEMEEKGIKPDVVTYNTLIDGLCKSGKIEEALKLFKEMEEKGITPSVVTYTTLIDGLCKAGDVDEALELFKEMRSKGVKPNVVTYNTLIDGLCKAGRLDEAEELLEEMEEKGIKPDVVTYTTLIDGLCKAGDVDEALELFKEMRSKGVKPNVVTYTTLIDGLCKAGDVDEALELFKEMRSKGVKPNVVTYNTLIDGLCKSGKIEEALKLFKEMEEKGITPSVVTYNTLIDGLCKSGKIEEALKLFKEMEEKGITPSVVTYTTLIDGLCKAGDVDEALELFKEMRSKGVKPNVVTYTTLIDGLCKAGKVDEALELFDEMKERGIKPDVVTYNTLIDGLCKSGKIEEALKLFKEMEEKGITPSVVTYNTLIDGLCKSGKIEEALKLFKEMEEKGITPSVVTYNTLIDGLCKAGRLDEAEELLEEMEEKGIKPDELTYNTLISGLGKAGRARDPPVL

[12] = biological target: T6, PPR2.0 t3; assay: 20 mM Tris-HCl pH 8.0, 150 mM NaCl, 0.5% NP-40, 1 mM DTT; settings: tags: N-terminal NanoLuc, C-terminal His6, kept; label: biotin

Chain of MS2 protein (P03612 2-130): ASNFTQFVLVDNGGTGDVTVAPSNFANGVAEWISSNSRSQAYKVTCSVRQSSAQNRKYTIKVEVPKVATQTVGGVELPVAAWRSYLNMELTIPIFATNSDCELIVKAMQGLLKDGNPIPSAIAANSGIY

## AGAAAACAUGAGGAUCACCCAUGUCUGCAG (structured_RNA) [Probe_MS2]
[1]
  binding result: binds

## GACAUGCGAAUGAACUCUUCCGGGAGACUG (ssRNA) [Probe_t1]
[2]
  Kd: 3.45 nM
[3]
  binding signal: 6.64e+07 RBP-ELISA luminescence, CPS

## GACAUGCGUGAUGUGGAGUUAAGGCGACUG (ssRNA) [Probe_t19]
[4]
  Kd: 173 nM
[5]
  binding signal: 1.19e+07 RBP-ELISA luminescence, CPS

## GACAUGCCCCAUAGAUGUGACAAGCGACUG (ssRNA) [Probe_t23]
[6]
  Kd: 10.4 nM
[7]
  binding signal: 3.27e+07 RBP-ELISA luminescence, CPS

## GACAUGCGGCGGGGCACUGUGCGUGGACUG (ssRNA) [Probe_t24]
[8]
  Kd: 11 nM

## GACAUGCGAGAGGAAGCCUGAGAGUGACUG (ssRNA) [Probe_t2]
[9]
  Kd: 4 nM
[10]
  binding signal: 5.68e+07 RBP-ELISA luminescence, CPS

## GACAUGCCUGAGUCAUAACCAGCCUGACUG (ssRNA) [Probe_t3]
[11]
  Kd: 59.2 nM
[12]
  binding signal: 3.35e+07 RBP-ELISA luminescence, CPS
